From patent publication US20100143371A1 (published 2010)

T1: endogenous Etk of NSR cells (mouse, UniProt P97504 1-651)
T1 sequence (looked up): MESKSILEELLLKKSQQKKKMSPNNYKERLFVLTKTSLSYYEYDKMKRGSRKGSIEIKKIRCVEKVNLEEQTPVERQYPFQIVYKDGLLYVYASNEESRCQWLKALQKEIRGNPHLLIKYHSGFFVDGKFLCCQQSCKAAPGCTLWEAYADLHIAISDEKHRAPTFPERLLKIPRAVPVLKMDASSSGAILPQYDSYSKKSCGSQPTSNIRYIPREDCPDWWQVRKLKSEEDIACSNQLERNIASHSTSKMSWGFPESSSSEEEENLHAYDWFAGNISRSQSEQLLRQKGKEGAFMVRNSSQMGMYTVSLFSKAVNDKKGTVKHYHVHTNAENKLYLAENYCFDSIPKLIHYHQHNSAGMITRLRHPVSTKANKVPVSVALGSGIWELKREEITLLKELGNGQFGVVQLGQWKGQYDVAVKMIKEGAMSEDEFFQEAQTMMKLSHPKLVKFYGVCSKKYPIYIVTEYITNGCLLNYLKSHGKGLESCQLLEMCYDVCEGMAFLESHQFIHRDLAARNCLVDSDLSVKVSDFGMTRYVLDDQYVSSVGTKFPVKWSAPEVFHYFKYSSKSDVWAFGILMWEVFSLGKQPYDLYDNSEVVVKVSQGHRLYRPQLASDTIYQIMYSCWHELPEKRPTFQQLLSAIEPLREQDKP


How the values were obtained:
[1] = target: T1, endogenous Etk of NSR cells; experiment: cell-based or functional assay
GST-Etk kinase domain [2] = target: T2, GST-Etk kinase domain (human, UniProt P51813 417-675); experiment: cell-based or functional assay
GST-Etk kinase domain [3] = target: T2, GST-Etk kinase domain; experiment: ELISA, purified domain antibody on immobilised GST-Etk, anti-Myc-HRP detection
Protocol: Quantitative Etk binding assay. Various concentrations of purified domain antibodies were added into a Maxi-sorp 96 well microtiter plate coated with 100 μl/well of 1 μg/ml GST-Etk and incubated for 1 h at RT. The plate was washed 3 times with PBST and then incubated with 100 μl/well of anti-Myc-HRP conjugate (1:5000 dilution) for 1 h at RT. The plate was washed 5 times, TMB peroxidase substrate was added and the absorbance at 450 nm was measured.
The antibody concentration required for 50% of maximum binding to Etk was 5 nM and 8 nM for L9 and L11, respectively, and approximately 20 nM for L5, L7, L12 and L15. […] Consistent with the binding data, all 6 domain antibodies blocked Etk enzymatic activity dose-dependently, as indicated by the reduction in the ability of recombinant Etk to phosphorylate the substrate, polyEY, in the presence of the domain antibodies (FIG. 2C).

[4] = target: T1, endogenous Etk of NSR cells; experiment: co-immunoprecipitation from NSR cell lysate (protein L or anti-Etk), western blot
Protocol: Western immunoblotting and immunoprecipitation. Cells from a 150 mm dish were harvested in 1 ml lysis buffer containing 25 mM Tris-HCl pH 7.4, 2 mM sodium orthovanadate, 0.5 mM EDTA, 10 mM NaF, 10 mM sodium pyrophosphate, 25 mM NaCl and 1% Tx-100 supplemented with 1:1000 dilution of protease inhibitor cocktail. Cells were frozen and thawed twice, centrifuged and supernatant was collected. Samples of 50 μg protein extract were resolved by SDS-PAGE under reducing conditions, and transferred onto nitrocellulose membrane for western immunoblotting with the indicated antibodies. For immunoprecipitation, 0.5 mg of protein extracts were incubated with either protein L beads or anti-Etk antibodies coupled to protein A bead overnight at 4° C. The immunocomplex was washed 4 times with PBST and twice with 50 mM Hepes, pH 7.5, electrophored on an SDS-polyacrylamide gel under reducing conditions, and transferred onto nitrocellulose membrane for western immunoblotting with the indicated antibodies. In addition, the immunocomplex was also used as the source for enzyme (Etk kinase) in the in vitro kinase activity and autophosphorylation assays described below.
This was further confirmed when the cell lysate was immunoprecipitated with an anti-Etk antibody followed by blotting with an anti-c-Myc antibodies (FIG. 3C).

T2 sequence (P51813 417-675): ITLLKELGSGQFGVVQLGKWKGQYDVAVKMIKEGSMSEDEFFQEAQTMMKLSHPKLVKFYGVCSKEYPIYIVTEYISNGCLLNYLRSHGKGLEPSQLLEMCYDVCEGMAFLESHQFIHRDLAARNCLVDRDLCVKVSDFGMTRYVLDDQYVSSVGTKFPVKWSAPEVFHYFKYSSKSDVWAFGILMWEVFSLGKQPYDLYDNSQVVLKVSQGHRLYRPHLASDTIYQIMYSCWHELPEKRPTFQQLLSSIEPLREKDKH

Row | in vitro autophosphorylation of immunoprecipitated Etk, percent of the wild-type enzyme (from NSR cells) activity retained [1] | in vitro kinase assay of Etk/intrabody immunocomplexes on polyEY, percent of activity of Etk derived from NSR cells [1] | domain antibody concentration required to achieve 50% inhibition of Etk kinase activity (polyEY substrate, ELISA-based in vitro kinase assay) (GST-Etk kinase domain [2]) | EC50 (GST-Etk kinase domain [3]) | binding result [4] | Binder
1 | ~37% | ~25% |  |  |  | K7 intrabody (L7 expressed from pcDNA3.1-L7 in NSR cells) (antibody, V domains shown, not shown: small tags and cut ends) VL: DIQMTQSPSSLSASVGDRVTITCRASQRIFTRLEWYQQKPGKAPMLLIYNVSHLQSGVPSRFSGSGSGTDFTLTISSLQPEDFATYYCQQTEIIPITFGQGTKVEIKQ
2 |  |  | ~40 nM | 8 nM |  | L11 soluble single domain antibody (antibody, V domains shown, Tie to L11 rests on list order and numbering; not shown: c-Myc tag (detected with anti-Myc-HRP)) VL: DIQMTQSPSSLSASVGDRVTITCRASQWIFTELAWYQQKPGKAPKLLIYNASYLQSGVPSRFSGSGSGTDFTLTISSLQPEDFATYYCQQTFTPPITFGQGTKVEIKR
3 | ~30% | ~25% |  |  |  | K11 intrabody (L11 expressed from pcDNA3.1-L11 in NSR cells) (antibody, V domains shown, not shown: small tags and cut ends) VL: DIQMTQSPSSLSASVGDRVTITCRASQWIFTELAWYQQKPGKAPKLLIYNASYLQSGVPSRFSGSGSGTDFTLTISSLQPEDFATYYCQQTFTPPITFGQGTKVEIKR
4 |  |  | ~20 nM | ~20 nM |  | L12 soluble single domain antibody (antibody, V domains shown, Single human kappa light chain variable domain, from pDOM5 in E. coli BL21, protein L purified; not shown: c-Myc tag (detected with anti-Myc-HRP)) VL: DIQMTQSPSSLSASVGDRVTITCRASQWIFDRLHWYQQKPGKAPTLLIYNSSTLQSGVPSRFSGSGSGTDFTLTISSLQPEDFATYYCQQTKSRPSTFGQGTKVEIKR
5 |  |  | ~20 nM | ~20 nM |  | L7 soluble single domain antibody (antibody, V domains shown, Single human kappa light chain variable domain, from pDOM5 in E. coli BL21, protein L purified; not shown: c-Myc tag (detected with anti-Myc-HRP)) VL: DIQMTQSPSSLSASVGDRVTITCRASQRIFTRLEWYQQKPGKAPMLLIYNVSHLQSGVPSRFSGSGSGTDFTLTISSLQPEDFATYYCQQTEIIPITFGQGTKVEIKQ
6 |  |  | ~20 nM | ~20 nM |  | L5 soluble single domain antibody (antibody, V domains shown, Single human kappa light chain variable domain (domain antibody), expressed from pDOM5 in E. coli BL21, purified on protein L, about 15 kDa; the tie to L5 rests on the order of the list and the numbering (CDRs 4, 6, 8 follow 2); not shown: c-Myc tag (detected with anti-Myc-HRP)) VL: DIQMTQSPSSLSASVGDRVTITCRASQGIKMKLNWYQQKPGKAPKLLIYNTSHLQSGVPSRFSGSGSGTDFTLTISSLQPEDFATYYCQQHKTRPDTFGQGTKVEIKR
7 | ~49% | ~25% |  |  |  | K5 intrabody (L5 expressed from pcDNA3.1-L5 in NSR cells) (antibody, V domains shown, not shown: small tags and cut ends) VL: DIQMTQSPSSLSASVGDRVTITCRASQGIKMKLNWYQQKPGKAPKLLIYNTSHLQSGVPSRFSGSGSGTDFTLTISSLQPEDFATYYCQQHKTRPDTFGQGTKVEIKR
8 | ~38% | ~25% |  |  |  | K9 intrabody (L9 expressed from pcDNA3.1-L9 in NSR cells) (antibody, V domains shown, not shown: small tags and cut ends) VL: DIQMTQSPSSLSASVGDRVTITCRASQAIKNKLGWYQQKPGKAPKLLIYKASYLQSGVPSRFSGSGSGTDFTLTISSLQPEDFATYYCQQMKSRPNTFGQGTKVEIKR
9 |  |  | ~20 nM | 5 nM |  | L9 soluble single domain antibody (antibody, V domains shown, Single human kappa light chain variable domain, from pDOM5 in E. coli BL21, protein L purified; not shown: c-Myc tag (detected with anti-Myc-HRP)) VL: DIQMTQSPSSLSASVGDRVTITCRASQAIKNKLGWYQQKPGKAPKLLIYKASYLQSGVPSRFSGSGSGTDFTLTISSLQPEDFATYYCQQMKSRPNTFGQGTKVEIKR
10 |  |  |  | ~20 nM |  | L15 soluble single domain antibody (antibody, V domains shown, Single human kappa light chain variable domain, from pDOM5 in E. coli BL21, protein L purified; not shown: c-Myc tag (detected with anti-Myc-HRP)) VL: DIQMTQSPSSLSASVGDRVTITCRASQNIKTKLNWYQQKPGKAPKLLIYRVSTLQSGVPSRFSGSGSGTDFTLTISSLQPEDFATYYCQQTKKRPFTFGQGTKVEIER
11 |  |  |  |  | no binding | K15 intrabody (L15 expressed from pcDNA3.1-L15 in NSR cells) (antibody, V domains shown, band of 12 kDa; not shown: c-Myc tag (detected with anti-c-Myc antibody)) VL: DIQMTQSPSSLSASVGDRVTITCRASQNIKTKLNWYQQKPGKAPKLLIYRVSTLQSGVPSRFSGSGSGTDFTLTISSLQPEDFATYYCQQTKKRPFTFGQGTKVEIER
